“And” between values parts separate entries of the source, which are not always exact repeats. Identical values can stand only once.

In the data set the target is T1, SIRT1 Acetylated Peptide Substrate Ac-EE-K(biotin)-GQSTSSHSK(Ac)NleSTEG-K(5TMR)-EE-NH2 (SEQ ID NO: 34).
T1 chain: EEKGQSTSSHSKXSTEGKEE

B1: SIRT1 protein (human SIRT1 enzyme), expressed in E. coli BL21(DE3) as an N-terminal His-tag fusion protein (protein)
chain: MADEAALALQPGGSPSAAGADREAASSPAGEPLRKRPRRDGPGLERSPGEPGGAAPEREVPAAARGCPGAAAAALWREAEAEAAAAGGEQEAQATAAAGEGDNGPGLQGPSREPPLADNLYDEDDDDEGEEEEEAAAAAIGYRDNLLFGDEIITNGFHSCESDEEDRASHASSSDWTPRPRIGPYTFVQQHLMIGTDPRTILKDLLPETIPPPELDDMTLWQIVINILSEPPKRKKRKDINTIEDAVKLLQECKKIIVLTGAGVSVSCGIPDFRSRDGIYARLAVDFPDLPDPQAMFDIEYFRKDPRPFFKFAKEIYPGQFQPSLCHKFIALSDKEGKLLRNYTQNIDTLEQVAGIQRIIQCHGSFATASCLICKYKVDCEAVRGDIFNQVVPRCPRCPADEPLAIMKPEIVFFGENLPEQFHRAMKYDKDEVDLLIVIGSSLKVRPVALIPSSIPHEVPQILINREPLPHLHFDVELLGDCDVIINELCHRLGGEYAKLCCNPVKLSEITEKPPRTQKELAYLSELPPTPLHVSEDSSSPERTSPPDSSVIVTLLDQAAKSNDDLDVSESKGCMEEKPQEVQTSRNVESIAEQMENPDLKNVGSSTGEKNERTSVAGTVRKCWPNRVAKEQISRRLDGNQYLFLPPNRYIFHGAEVYSDSEDDVLSSSSCGSNSDSGTCQSPSLEEPMEDESEIEEFYNGLEDEPDVPERAGGAGFGTDGDDQEAINEAISVKQEVTDMNYPSNKS
On to B1, for which the “Km (mass spectrometry deacetylase assay, replicate plate)” value was 11.2 µM and 11.9 µM; the Peptide Km (mean of 2 replicate plates, mass spectrometry assay) came to 11.6 µM; the “deacetylation of the peptide (conversion to deacetylated product, mass spectrometry)” value was “SIRT1 deacetylation activity is dependent on both enzyme concentration and incubation time. Concentrations of enzyme between 5-20 nM result in product formation well above background”; the “decrease of Km for peptide substrate at 1.2 µM resveratrol (against DMSO vehicle)” value stood at 2%. Moreover, the “decrease of Km for peptide substrate at 3.7 µM resveratrol (against DMSO vehicle)” value came to 14%, the “decrease of Km for peptide substrate at 11 µM resveratrol (against DMSO vehicle)” value stood at 14%, the “decrease of Km for peptide substrate at 33 µM resveratrol (against DMSO vehicle)” value is given as 32% and the “decrease of Km for peptide substrate at 100 µM resveratrol (against DMSO vehicle)” value worked out at 46%.

The values above are taken from patent US8304206.
